In patent US20220088146A1, “Melanocortin Receptor-Specific Peptide Formulations and Methods for Gastrointestinal Tract-Specific Delivery” (Palatin Technologies, Inc., priority 2018, published 2022) one finds Ki, MC-1 EC50 (average; cAMP HBL) and MC-1 Emax (average; cAMP HBL) data, which are given here for six molecules.

Bridge positions count the residues as written; N and C are the ends. Square brackets hold non-standard residues; d marks the D form. Nle = CCCC[C@H](N)C(=O)O; Dab = NCC[C@H](N)C(=O)O; Dap = NC[C@H](N)C(=O)O

B1: Ac-Nle-cyclo(Glu-Pro-D-Phe-Arg-Dab)-Trp-NH2 (peptide)
peptide: Ac-[Nle]EP[dF]R[Dab]W-NH2
modifications: lactam 2-6
SMILES: CCCC[C@H](NC(C)=O)C(=O)N[C@H]1CCC(=O)NCC[C@@H](C(=O)N[C@@H](Cc2c[nH]c3ccccc23)C(N)=O)NC(=O)[C@H](CCCNC(=N)N)NC(=O)[C@@H](Cc2ccccc2)NC(=O)[C@@H]2CCCN2C1=O
B2: Ac-Nle-cyclo(Asp-His-D-Phe-Arg-Dap)-Trp-NH2 (peptide)
peptide: Ac-[Nle]DH[dF]R[Dap]W-NH2
modifications: lactam 2-6
SMILES: CCCC[C@H](NC(C)=O)C(=O)N[C@H]1CC(=O)NC[C@@H](C(=O)N[C@@H](Cc2c[nH]c3ccccc23)C(N)=O)NC(=O)[C@H](CCCNC(=N)N)NC(=O)[C@@H](Cc2ccccc2)NC(=O)[C@H](Cc2c[nH]cn2)NC1=O
B3: Ac-Nle-cyclo(Glu-His-D-Phe-Ala-Dab)-Trp-NH2 (peptide)
peptide: Ac-[Nle]EH[dF]A[Dab]W-NH2
modifications: lactam 2-6
SMILES: CCCC[C@H](NC(C)=O)C(=O)N[C@H]1CCC(=O)NCC[C@@H](C(=O)N[C@@H](Cc2c[nH]c3ccccc23)C(N)=O)NC(=O)[C@H](C)NC(=O)[C@@H](Cc2ccccc2)NC(=O)[C@H](Cc2c[nH]cn2)NC1=O
B4: Ac-Nle-cyclo(Glu-His-D-Phe-Arg-Dab)-Lys-NH2 (peptide)
peptide: Ac-[Nle]EH[dF]R[Dab]K-NH2
modifications: lactam 2-6
SMILES: CCCC[C@H](NC(C)=O)C(=O)N[C@H]1CCC(=O)NCC[C@@H](C(=O)N[C@@H](CCCCN)C(N)=O)NC(=O)[C@H](CCCNC(=N)N)NC(=O)[C@@H](Cc2ccccc2)NC(=O)[C@H](Cc2c[nH]cn2)NC1=O
B5: Ac-Nle-cyclo(Glu-His-D-Phe-Gly-Dab)-Trp-NH2 (peptide)
peptide: Ac-[Nle]EH[dF]G[Dab]W-NH2
modifications: lactam 2-6
SMILES: CCCC[C@H](NC(C)=O)C(=O)N[C@H]1CCC(=O)NCC[C@@H](C(=O)N[C@@H](Cc2c[nH]c3ccccc23)C(N)=O)NC(=O)CNC(=O)[C@@H](Cc2ccccc2)NC(=O)[C@H](Cc2c[nH]cn2)NC1=O

One test deals with human melanocortin-4 receptor (human) (UniProt P32245). In words: [I125]-NDP-α-MSH competition, hMC4r HEK-293 membranes.
Sequence of human melanocortin-4 receptor (human) (P32245 whole entry): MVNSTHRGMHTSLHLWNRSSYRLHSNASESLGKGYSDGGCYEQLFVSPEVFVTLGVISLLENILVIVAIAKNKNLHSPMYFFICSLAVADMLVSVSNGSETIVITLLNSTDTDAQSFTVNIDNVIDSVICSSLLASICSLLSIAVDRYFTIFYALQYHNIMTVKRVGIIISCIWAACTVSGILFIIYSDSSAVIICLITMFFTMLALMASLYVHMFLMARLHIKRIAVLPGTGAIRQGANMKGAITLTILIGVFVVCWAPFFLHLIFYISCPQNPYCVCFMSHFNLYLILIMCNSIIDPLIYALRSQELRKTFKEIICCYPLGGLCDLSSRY
One may read the Ki as the equilibrium dissociation constant of an inhibitor or competing ligand from its target. Higher therefore signals a looser hold on the target. In the case of Ac-[Nle]EH[dF]R[Dab]A-NH2 (lactam 2-6) [Ac-Nle-cyclo(Glu-His-D-Phe-Arg-Dab)-Ala-NH2], the Ki amounted to 7480 nM.

B1 displayed a Ki of 185 nM.

B2 showed an inhibition constant Ki of 1320 nM.

With B3, the Ki is 10000 nM.

B4 had a Ki of 7380 nM. This Ki and that of the molecule before are within 1.5-fold of each other.

For B5, the Ki turned out to be 10000 nM. This Ki and that of the molecule before are within 1.5-fold of each other.

A further test deals with human melanocortin-1 receptor (human) (UniProt Q01726). Briefly: cell-based or functional assay.
Sequence of human melanocortin-1 receptor (human) (Q01726 whole entry): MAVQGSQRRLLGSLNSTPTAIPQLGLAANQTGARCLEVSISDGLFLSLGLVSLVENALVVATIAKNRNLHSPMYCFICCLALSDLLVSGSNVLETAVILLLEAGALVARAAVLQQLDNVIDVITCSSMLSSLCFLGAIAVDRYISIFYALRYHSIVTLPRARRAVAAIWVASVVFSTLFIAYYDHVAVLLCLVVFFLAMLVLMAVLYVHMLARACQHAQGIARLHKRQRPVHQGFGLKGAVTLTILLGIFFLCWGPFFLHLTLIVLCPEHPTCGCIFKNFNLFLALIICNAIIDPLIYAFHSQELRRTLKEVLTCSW
In turn, Ac-[Nle]EH[dF]R[Dab]A-NH2 (lactam 2-6) [Ac-Nle-cyclo(Glu-His-D-Phe-Arg-Dab)-Ala-NH2] returned an MC-1 EC50 (average; cAMP HBL) of 0.08 nM and an MC-1 Emax (average; cAMP HBL) of 97%.

Regarding B1, the MC-1 EC50 (average; cAMP HBL) amounted to 0.18 nM and the MC-1 Emax (average; cAMP HBL) was 97%.

On to B2, for which the MC-1 EC50 (average; cAMP HBL) worked out at 0.195 nM and the MC-1 Emax (average; cAMP HBL) is 88%.

As for B3, the MC-1 EC50 (average; cAMP HBL) stood at 0.115 nM and the MC-1 Emax (average; cAMP HBL) stood at 72%.

B4: the MC-1 EC50 (average; cAMP HBL) was 0.175 nM and the MC-1 Emax (average; cAMP HBL) is 91%.

B5: the MC-1 EC50 (average; cAMP HBL) was found to be 4 nM and the MC-1 Emax (average; cAMP HBL) is 59%.

Another test shares this target. In words: [I125]-NDP-α-MSH competition, hMC1r HEK-293 membranes.
In turn, Ac-[Nle]EH[dF]R[Dab]A-NH2 (lactam 2-6) [Ac-Nle-cyclo(Glu-His-D-Phe-Arg-Dab)-Ala-NH2] yielded an inhibition constant Ki of 2 nM.

Take B1: the inhibition constant (Ki) is 3 nM.

B2 came in with an inhibition constant (Ki) of 2 nM.

B3 gave an inhibition constant Ki of 0.8 nM.

Consider B4, for which the Ki stood at 2 nM.

In the case of B5, the inhibition constant Ki stood at 9 nM.
